According to US20120294871A1, “MODULATION OF GPCR-MEDIATED CAMP PRODUCTION THROUGH LRP6 AND ITS THERAPEUTIC APPLICATION” (THE JOHNS HOPKINS UNIVERSITY, priority 2011, published 2012):

Legend:
[1] = test system: Glutathione S-transferase (GST)-fused cytoplasmic domain of LRP5 [GST: P08515]
[2] = test system: T1, Glutathione S-transferase (GST)-fused cytoplasmic domain of LRP6
T1 sequence: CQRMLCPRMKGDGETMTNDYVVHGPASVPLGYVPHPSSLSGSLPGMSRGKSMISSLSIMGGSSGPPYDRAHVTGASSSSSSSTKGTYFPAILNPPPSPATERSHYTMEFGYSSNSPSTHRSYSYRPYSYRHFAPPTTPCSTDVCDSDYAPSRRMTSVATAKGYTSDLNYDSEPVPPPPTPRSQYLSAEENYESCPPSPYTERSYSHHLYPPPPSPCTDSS

[3] = test system: GST-fused cytoplasmic domain of LRP6 with the PKA site mutated (Thr1548 to Ala)
[4] = test system: LRP6-Gαs interaction; assay: Coimmunoprecipitation and Western blotting of LRP6-associated G proteins in HEK 293 cells; assay type: cell-based, human
Experimental: (§1) Cell Culture, Transfections, Coimmunoprecipitation, and Western Blotting Analysis. HEK293,UMR-106,C2C12, and MEF cells were maintained in Dulbecco's modified Eagle's medium (DMEM) with 10% fetal calf serum (FCS). Transfections were performed with Lipofectamine reagent (Invitrogen). Immunoprecipitations and Western blotting analysis of cell lysates were performed as described previously (37). Briefly, cells were lysed in immunoprecipitation buffer [50 mM tris-HCl (pH7.5), 150 mM NaCl, 1% Triton X-100, and 0.5% sodium deoxycholate containing protease inhibitors. The lysates were subjected to immunoprecipitation by incubation with the appropriate antibodies followed by absorption on protein G-Sepharose. The immunoprecipitates were separated by SDS-polyacrylamide gel electrophoresis (SDS-PAGE) and transferred onto a nitrocellulose membrane. Western blots were characterized with the SuperSignal West Femto Substrate system (Pierce, Thermo Fisher Scientific Inc.). Primary antibodies used for Western blotting analysis and immunoprecipitations included mouse antibody against the FLAG tag (M2, Sigma-Aldrich), rabbit antibody against VSVG (Covance), mouse antibody against the HA tag (16B12, Covance), rabbit antibody against PTH1R, (PRB-640P, Covance), rabbit antibodies against CREB and phosphorylated CREB (pCREB) (both from Upstate), and rabbit antibody against Gαs and mouse antibody against Gb1 (both from Santa Cruz Biotechnology).

[5] = test system: GST-fused cytoplasmic domain of LRP6 with the GSK-3 site mutated (Ser1544 to Ala)
[6] = test system: LRP5-Gαs interaction; assay: Coimmunoprecipitation and Western blotting of LRP5-associated Gαs in HEK 293 cells; assay type: cell-based, human; conditions: HEK 293 cells with PTH1R and HA-tagged LRP5, PTH(1-34) 50 nM
Experimental: as §1, with “Primary antibodies used for Western blotting analysis and immunoprecipitations included mouse antibody against the FLAG tag (M2, Sigma-Aldrich), rabbit antibody against VSVG (Covance), mouse antibody against the HA tag (16B12, Covance), rabbit antibody against PTH1R, (PRB-640P, Covance), rabbit antibodies against CREB and phosphorylated CREB (pCREB) (both from Upstate), and rabbit antibody against Gαs and mouse antibody against Gb1 (both from Santa Cruz Biotechnology).” left out

[7] = test system: cAMP production; assay: ICUE3 FRET biosensor, cAMP kinetics in live HEK 293 cells; assay type: cell-based, human; conditions: PTH(1-34) 50 nM
Text: Detection of the Temporal Dynamics of cAMP Signaling in Living Cells. The binding of cAMP to Epac induces a conformational change that liberates the catalytic domain of Epac from intrasubunit allosteric inhibition (42). A chimeric protein (ICUE3) generated by fusing the N terminus of a truncated form of Epac to enhanced CFP (ECFP) and the C terminus of Epac to citrine, an improved version of yellow fluorescent protein (YFP), was produced as previously described (43). Sandwiching these conformationally responsive elements of Epac between a FRET pair (citrine and ECFP) enables cAMP production and degradation to be monitored by detecting changes in FRET. Therefore, changes in cAMP could be monitored in real time in single live cells. Experiments were performed as previously described (41). […] The ratios of cyan-to-yellow emissions were then calculated at different time points and normalized by dividing all of the ratios by the emission ratio just before stimulation, thereby setting the basal emission ratio to 1. […] The fluorescence intensities of ECFP before (Fda) and after (Fd) citrine photobleaching and the equation E=1−(Fda/Fd) were used to calculate the FRET efficiency.

[8] = biological target: T2, VSVG-tagged LRP6 (wild type) (human, UniProt O75581 20-1613); assay: co-immunoprecipitation and Western blotting, HEK 293 cells
T2 construct: also called WT-LRP6; WT LRP6; not shown: VSVG tag

[9] = lysis buffer containing AlF4− (100 mM AlCl3, 10 mM NaF)

Chain of Glutathione S-transferase (GST)-fused cytoplasmic domain of LRP5 [GST: P08515] (P08515 whole entry, looked up, the tested form may be a part): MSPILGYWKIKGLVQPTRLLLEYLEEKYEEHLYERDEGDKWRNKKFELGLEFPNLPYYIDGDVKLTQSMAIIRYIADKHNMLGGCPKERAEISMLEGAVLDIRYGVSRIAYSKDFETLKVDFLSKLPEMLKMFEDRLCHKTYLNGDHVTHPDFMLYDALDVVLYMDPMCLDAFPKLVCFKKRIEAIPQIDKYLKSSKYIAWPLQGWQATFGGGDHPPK

Recombinant catalytic subunit of PKA
in vitro kinase assay ([γ-32P]ATP, PhosphorImager) [1]: the intracellular domain of LRP5 was not phosphorylated | in vitro kinase assay ([γ-32P]ATP, PhosphorImager) [2]: the intracellular domain of LRP6 (LRP6C) was phosphorylated by PKA | in vitro kinase assay ([γ-32P]ATP, PhosphorImager) [3]: Only alteration of Thr^1548 abolished the phosphorylation of LRP6C by PKA

[F][Al-]([F])([F])[F] [AlF4^−]
interaction of LRP6 with Gαs [4, 9]: blocked | interaction of LRP6 with Gβ1 [4, 9]: blocked

Recombinant GSK-3
in vitro kinase assay (PKA with cold ATP, then GSK-3 with [γ-32P]ATP) [2]: pretreatment with recombinant PKA enhanced the phosphorylation of LRP6 by GSK-3 | in vitro kinase assay (sequential PKA and GSK-3) [5]: Both mutants abolished the phosphorylation of LRP6 by GSK-3 | in vitro kinase assay (sequential PKA and GSK-3) [3]: Both mutants abolished the phosphorylation of LRP6 by GSK-3

PTH(1-34): a C-terminal-truncated synthetic analog of PTH that has an anabolic effect on bone formation in humans (SVSEIQLMHNLGKHLNSMERVEWLRKKLQDVHNF)
association of Gαs with LRP5 [6]: did not enhance | time to plateau of the cyan-to-yellow emission ratio [7]: 4 to 6 min | time to rapid change in the ratio of cyan-to-yellow emissions (indication of cAMP production) [7]: ≤ 30 s | interaction between Gαs and LRP6 ([4]; HEK 293 cells with PTH1R and VSVG-tagged LRP6, PTH(1-34) 50 nM, within S min of treatment, further enhanced at 30 min): enhanced

5′-UGCCAAGAAGGCUGAGUCG-3′ (listed as RNA, chemistry not given here) [siRNA specific for axin]
PTH-induced interaction between Gαs and LRP6 ([4]; knockdown of axin vs scrambled control siRNA, PTH(1-34) 50 nM): not affected

B1: Gαs (endogenous, from HEK 293 cell lysates) (other, human, UniProt P63092 2-394, looked up)
chain: GCLGNSKTEDQRNEEKAQREANKKIEKQLQKDKQVYRATHRLLLLGAGESGKSTIVKQMRILHVNGFNGEGGEEDPQAARSNSDGEKATKVQDIKNNLKEAIETIVAAMSNLVPPVELANPENQFRVDYILSVMNVPDFDFPPEFYEHAKALWEDEGVRACYERSNEYQLIDCAQYFLDKIDVIKQADYVPSDQDLLRCRVLTSGIFETKFQVDKVNFHMFDVGGQRDERRKWIQCFNDVTAIIFVVASSSYNMVIREDNQTNRLQEALNLFKSIWNNRWLRTISVILFLNKQDLLAEKVLAGKSKIEDYFPEFARYTTPEDATPEPGEDPRVTRAKYFIRDEFLRISTASGDGRHYCYPHFTCAVDTENIRRVFNDCRDIIQRMHLRQYELL
notes: Present in whole-cell lysate, so other proteins (Gβγ) may be associated with it; also called Gas; αs subunit of the G protein
binding result [8]: binds
